This note sets out measurements from patent US20250101137A1 (TRUSTEES OF TUFTS COLLEGE, published 2025).

Assay [1] has as its target Botulinum neurotoxin serotype A1 (BoNT/A) holotoxin (Clostridium botulinum, UniProt P0DPI0). The assay is described as follows: method not stated.
Assay [2] has as its target Botulinum neurotoxin serotype B (BoNT/B) holotoxin (Clostridium botulinum, UniProt P10844). Kind of assay: SPR; immobilised form of BoNT/B not stated.

B1: scFv #7 (scFv)
scFv: SYELTQPPSMSVALGQTAKVTCQGDNLENFYVQWHQQKPGQAPVTVIFQDNKRPSGIPDRFSGSNSGNTATLTISGARTEDEADYYCQSGHSSIGGVFGSGTSLTVLGQPAAAGGGGSGGGGSGGGGSARQVQLQESGPSLVKPSQTLSLTCTVSGFSLTGNSVTWVRQAPGNVPEWLGGISRGGRTYYDTALKSRLSITRDTSKRQVSLSLSSVTTEDTAMYFCARSAYSTLYDYEYAADIYDWGPGLLVTVSSTSGAPVPYPDPLEPRAA
In the case of B1, in assay [1], the Kd is approximately 1 nM.

B2: ciB-B9 (VHH)
VHH: TGGGLVQAGGSLRLSCTASGRTSSFYALAWFRQGPGKEREFVAAIGWIDGSTRYTDSAKGRFTISRDAAKNTMYLQMNSLKPEDTAVYSCTARTQYGGSSADPKNYGYWGQGTQVTVSA
The molecule B2 returned a Kd in assay [2] of 23 nM.

B3: ciB-H11 (VHH)
VHH: QVQLVETGGGLVQAGGSLRLSCAGSGRSFSAAVMGWFRQAPGKEREFVAALRQIIGSTHYADSVKGRFTISRDNAKNMLYLDMNSLKPTDTAAYYCTAGPPTMLDVSTDREYDTWGQGTQVTVSS
Regarding B3, in assay [2], binding was characterised by a dissociation constant (Kd) of 0.26 nM.
